Consider 4 molecules from paper PMC4701444 (PLoS ONE, 2016).

Assay [1] addresses ΔDII-PfAMA1 (PfAMA1 DI-DII with residues 351-387 of the DII loop replaced by 7 Gly/Ser residues) (Plasmodium falciparum) (UniProt Q7KQK5). Put plainly: ITC; 25°C, MicroCal iTC200; cell: PfAMA1 or ΔDII-PfAMA1 (10 μM); syringe: PfRON2D3-TRX (110 μM), 17 injections of 2.2 μL; 20 mM Hepes pH 7.5, 150 mM NaCl; one binding site model. Background: ITC needs no label: the signal is the heat of the interaction.

Assay [2] has as its target F*PfRON2sp1 (39 aa) [2021-2059], fluorescein-labeled PfRON2sp1 peptide (Plasmodium falciparum). As to the kind of experiment: fluorescence polarisation; anisotropy titration at 25°C; 10 nM F*PfRON2sp1 titrated with protein (0 to 10 μM); PBS pH 7.4, at least 0.1% BSA. For orientation: In fluorescence polarisation assays a small probe gives low polarisation when free and higher when bound to something large.

The target is the same in assay [3]. Put plainly: fluorescence polarisation; anisotropy titration at 30°C; 10 nM F*PfRON2sp1 titrated with protein (0 to 10 μM); PBS pH 7.4, at least 0.1% BSA.
Assay [4] shares this target. As to the kind of experiment: fluorescence polarisation; anisotropy kinetics at 30°C; association: 10 nM labeled probe with 50, 100, 200 nM protein; dissociation: 10 nM preformed complex challenged with 2500 or 5000 nM unlabeled PfRON2sp1; global fit to a one-intermediate model; PBS pH 7.4, at least 0.1% BSA.
Assay [5] has the same target. As to the kind of experiment: fluorescence polarisation; anisotropy kinetics at 20°C; association: 10 nM labeled probe with 50, 100, 200 nM protein; dissociation: 10 nM preformed complex challenged with 2500 or 5000 nM unlabeled PfRON2sp1; global fit to a one-intermediate model; PBS pH 7.4, at least 0.1% BSA.
Assay [6] shares this target. Put plainly: fluorescence polarisation; anisotropy kinetics at 25°C; association: 10 nM labeled probe with 50, 100, 200 nM protein; dissociation: 10 nM preformed complex challenged with 2500 or 5000 nM unlabeled PfRON2sp1; global fit to a one-intermediate model; PBS pH 7.4, at least 0.1% BSA.
For assay [7] the target is unchanged. As to the kind of experiment: fluorescence polarisation; anisotropy titration at 20°C; 10 nM F*PfRON2sp1 titrated with protein (0 to 10 μM); PBS pH 7.4, at least 0.1% BSA.
Assay [8] concerns the target T1, PfAMA1 (DI-DII of Plasmodium falciparum Apical Membrane Antigen 1, 3D7, residues 104-438) (Plasmodium falciparum, UniProt Q7KQK5 104-438).
T1 construct: codon-optimized synthetic gene; also called native PfAMA1; PfAMA1 DI-DII construct
T1 sequence: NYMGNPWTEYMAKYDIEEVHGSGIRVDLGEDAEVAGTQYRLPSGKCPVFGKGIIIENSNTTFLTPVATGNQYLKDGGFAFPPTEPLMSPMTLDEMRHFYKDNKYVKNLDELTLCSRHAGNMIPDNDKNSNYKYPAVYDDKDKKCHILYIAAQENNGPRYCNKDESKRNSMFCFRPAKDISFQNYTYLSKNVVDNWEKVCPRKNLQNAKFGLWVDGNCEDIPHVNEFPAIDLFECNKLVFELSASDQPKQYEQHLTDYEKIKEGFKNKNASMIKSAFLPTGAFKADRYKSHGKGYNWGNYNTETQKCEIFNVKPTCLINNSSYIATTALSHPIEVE
As to the kind of experiment: ITC; 25°C, MicroCal iTC200; cell: PfAMA1 or ΔDII-PfAMA1 (10 μM); syringe: PfRON2D3-TRX (110 μM), 17 injections of 2.2 μL; 20 mM Hepes pH 7.5, 150 mM NaCl; one binding site model. The settings on record: both partners purified.

Assay [9] addresses T1, PfAMA1 (DI-DII of Plasmodium falciparum …). Described as above. The settings on record: both partners purified. The source holds these as a separate data set.
The target is the same in assay [10]. As to the kind of experiment: fluorescence polarisation; anisotropy kinetics at 25°C; association: 10 nM labeled probe with 50, 100, 200 nM protein; dissociation: 10 nM preformed complex challenged with 2500 or 5000 nM unlabeled PfRON2sp1; global fit to a one-intermediate model; PBS pH 7.4, at least 0.1% BSA. To be noted: both partners purified.
Assay [11] has the same target. As to the kind of experiment: fluorescence polarisation; anisotropy titration at 25°C; 10 nM F*PfRON2sp1 titrated with protein (0 to 10 μM); PBS pH 7.4, at least 0.1% BSA. The settings on record: both partners purified.
For assay [12] the target is unchanged. Put plainly: fluorescence polarisation; anisotropy kinetics at 30°C; association: 10 nM labeled probe with 50, 100, 200 nM protein; dissociation: 10 nM preformed complex challenged with 2500 or 5000 nM unlabeled PfRON2sp1; global fit to a one-intermediate model; PBS pH 7.4, at least 0.1% BSA. To be noted: both partners purified.
The target is the same in assay [13]. Put plainly: fluorescence polarisation; anisotropy titration at 30°C; 10 nM F*PfRON2sp1 titrated with protein (0 to 10 μM); PBS pH 7.4, at least 0.1% BSA. To be noted: both partners purified.
The target is the same in assay [14]. As to the kind of experiment: fluorescence polarisation; anisotropy kinetics at 20°C; association: 10 nM labeled probe with 50, 100, 200 nM protein; dissociation: 10 nM preformed complex challenged with 2500 or 5000 nM unlabeled PfRON2sp1; global fit to a one-intermediate model; PBS pH 7.4, at least 0.1% BSA. The settings on record: both partners purified.
The target is the same in assay [15]. Put plainly: fluorescence polarisation; anisotropy titration at 20°C; 10 nM F*PfRON2sp1 titrated with protein (0 to 10 μM); PBS pH 7.4, at least 0.1% BSA. To be noted: both partners purified.

Bridge positions count the residues as written; N and C are the ends. Ends that are not written are not given here. * marks the point of attachment. 5FAM = O=C1OC2(c3ccc(O)cc3Oc3cc(O)ccc32)c2ccc(C(=O)*)cc21

Turning to “PfRON2D3-TRX (thioredoxin fusion of PfRON2D3, amino acids Asp2021 to Ser2059) (domain or fragment)”, in assay [1], the Kd turned out to be 92.6 nM and the dH was -11.8 kcal/mol.

In assay [2], “ΔDII-PfAMA1 (PfAMA1 DI-DII with residues 351-387 of the DII loop replaced by 7 Gly/Ser residues) (from UniProt Q7KQK5 104-350; Q7KQK5 388-438) (domain or fragment)” yielded a Kd of 94 nM. This molecule came in with a Kd in [3] of 125 nM. For the same molecule, in assay [4], the Kd stood at 126 nM; the complex half-life (calculated from the one-intermediate model) was 30 s; the complex half-life (experimental) was determined as 30 s; the k1 (step 1, forward: reactants to intermediate) is 168000 M⁻¹ s⁻¹. Further, in assay [4], the k1/k2 (association constant of step 1) worked out at 7.35e+06 M⁻¹; the k2 (step 1, reverse: intermediate to reactants) worked out at 0.0229 s⁻¹; the k3 (step 2, forward: intermediate to complex) is 0.0117 s⁻¹; the k3/k4 (equilibrium constant of step 2) was 0.08. In assay [4], this molecule showed a k4 (step 2, reverse: complex to intermediate) of 0.147 s⁻¹. In assay [5], the Kd came out at 50 nM; the complex half-life (calculated from the one-intermediate model) is 166 s; the complex half-life (experimental) stood at 100 s; the k1 (step 1, forward: reactants to intermediate) was determined as 78900 M⁻¹ s⁻¹. In assay [5], this molecule yielded a k1/k2 (association constant of step 1) of 1.89e+07 M⁻¹; a k2 (step 1, reverse: intermediate to reactants) of 0.00417 s⁻¹; a k3 (step 2, forward: intermediate to complex) of 0.00459 s⁻¹; a k3/k4 (equilibrium constant of step 2) of 0.056. Besides, in assay [5], the k4 (step 2, reverse: complex to intermediate) amounted to 0.0812 s⁻¹. In addition, in assay [6], the Kd worked out at 80.1 nM; the complex half-life (calculated from the one-intermediate model) was 69.9 s; the complex half-life (experimental) came out at 48 s; the dH (overall, summation of the transition states from the kinetic fit) is -10.6 kcal/mol. Besides, in [6], the dH of step 1 (formation of the intermediate) is -16.7 kcal/mol; the k1 (step 1, forward: reactants to intermediate) stood at 116000 M⁻¹ s⁻¹; the k1/k2 (association constant of step 1) stood at 1.17e+07 M⁻¹; the k2 (step 1, reverse: intermediate to reactants) stood at 0.0099 s⁻¹. Further, in assay [6], the k3 (step 2, forward: intermediate to complex) was 0.0074 s⁻¹; the k3/k4 (equilibrium constant of step 2) was found to be 0.067; the k4 (step 2, reverse: complex to intermediate) stood at 0.11 s⁻¹. In assay [7], this molecule came in with a Kd of 60 nM.

B1: PfRON2D3-TRX (thioredoxin fusion of PfRON2D3, amino acids Asp2021 to Ser2059) (domain or fragment)
chain: DITQQAKDIGAGPVASCFTTRMSPPQQICLNSVVNTALS
notes: Modified pET32a vector with N-terminal hexahistidine and thioredoxin tags and a thrombin cleavage site; the fusion was used uncleaved in ITC; also called TRX-fused peptide; not shown: thioredoxin (TRX), N-terminal, kept
For the molecule B1, the dH in [8] is -12.1 ± 0.1 kcal/mol. The molecule further registered a Kd in [9] of 42.9 nM.

B2: F*PfRON2sp1 (39 aa) [2021-2059], fluorescein-labeled PfRON2sp1 peptide (peptide)
peptide: 5FAM-DITQQAKDIGAGPVASCFTTRMSPPQQICLNSVVNTALS
modifications: disulfide 17-29
notes: Rhoptry Neck Protein 2 (RON2) of Plasmodium falciparum, residues 2021-2059; also called labeled peptide; labeled probe; source: synthetic peptide, bought: Kinexus (purity ≥ 95%)
For the molecule B2, the Kd was found to be 38.2 ± 10 nM in assay [10]; 43 ± 3 nM in assay [11]; 43.8 ± 11 nM in [12]; 61 ± 5 nM in assay [13]; 32.3 ± 8 nM in assay [14]; 31 ± 2 nM in [15].

In general, Kd refers to the equilibrium constant for the complex coming apart.
